# Results from patent US11419945B2, “Antigen binding proteins” (Glaxo Group Limited, priority 2011, dated 2022).
# T1: human BCMA HEK293 (Homo sapiens, UniProt Q02223)
# T1 construct: expressed in transfected cells; host or cells: HEK293
# T1 sequence (Q02223 1-184): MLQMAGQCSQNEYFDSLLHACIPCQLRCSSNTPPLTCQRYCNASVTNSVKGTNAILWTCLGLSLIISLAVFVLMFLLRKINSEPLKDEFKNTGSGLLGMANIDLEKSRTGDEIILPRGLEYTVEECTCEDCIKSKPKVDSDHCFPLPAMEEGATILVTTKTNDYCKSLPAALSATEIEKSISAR
# T2: ARH77-hBCMA 10B5 BCMA expressing transfectant cells (Homo sapiens, UniProt Q02223)
# T2 construct: expressed in transfected cells; host or cells: ARH77 (clone 10B5)
# T2 sequence (Q02223 1-184): T1 sequence (Q02223 1-184)
# B1: CA8 Chimera: chimeric anti-BCMA antibody: murine CA8 VH (SEQ ID NO:7) and VL (SEQ ID NO:9) on human γ1 and kappa constant regions (antibody, V domains shown)
# VH: EVQLQQSGAVLARPGASVKMSCKGSGYTFTNYWMHWVKQRPGQGLEWIGATYRGHSDTYYNQKFKGKAKLTAVTSTSTAYMELSSLTNEDSAVYYCTRGAIYNGYDVLDNWGQGTLVTVSS
# VL: DIQLTQTTSSLSASLGDRVTISCSASQDISNYLNWYQQKPDGTVELVIYYTSNLHSGVPSRFSGSGSGTDYSLTIGYLEPEDVATYYCQQYRKLPWTFGGGSKLEIKR
# modifications: human IgG1 and kappa constant regions; mus musculus
# Assays:
# human BCMA HEK293 = target: T1, human BCMA HEK293; assay: FMAT binding assay, human BCMA expressing HEK293 cells; details: range of antibody concentrations
# Procedure: (§1) Cryopreserved transfected human, cyno BCMA and mock transfected HEK293 cells were recovered from LN2 storage. Assay wells were prepared with human chimeric CA8 antibody, at a range of different concentrations, mixed with human BCMA HEK293, cyno BCMA HEK293 and mock transfected cells respectively. Anti-human IgG FMAT Blue secondary conjugate was added for detection of human chimeric CA8. The assay plates were left for a minimum of 90 minutes before the result was read on the ABI8200 (FMAT) plate reader.
# cyno BCMA HEK293 = assay: FMAT binding assay, cyno BCMA expressing HEK293 cells; details: range of antibody concentrations
# Sequence of cyno BCMA HEK293 (as listed by the source): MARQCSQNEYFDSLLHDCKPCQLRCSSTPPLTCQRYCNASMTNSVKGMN
# Procedure: as §1
# BCMA-Fc = assay: Biacore cross reactivity experiment, BCMA-Fc; type: binding; details: antibody captured on protein A
# Procedure: (§2) CA8 chimera antibody was injected and captured on protein A. (A protein A derivitised sensorchip was used). Residual protein A binding was blocked with an injection of a high concentration of human IgG solution. BCMA-Fc, TACI-Fc or BAFF-R-Fc solutions were then tested for binding to the antibody. The 3 proteins were injected in sequence and binding events were measured. The surface was regenerated between injection of each protein.
# (§3) Sensorgrams were analysed in the Biaevaluation program. Double reference subtraction was done to remove instrument noise and any non-specific binding from the sensorgram curves.
# BAFF-R-Fc = assay: Biacore cross reactivity experiment, BAFF-R-Fc; type: binding; details: antibody captured on protein A; listed as CA8 chimera antibody
# Sequence of BAFF-R-Fc (Q96RJ3 1-78 limits assumed): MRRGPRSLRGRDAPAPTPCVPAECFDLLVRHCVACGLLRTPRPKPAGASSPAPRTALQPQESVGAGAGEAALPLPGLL
# Procedure: as §2, §3
# [1] = target: T2, ARH77-hBCMA 10B5 BCMA expressing transfectant cells; assay: FACS binding of humanised CA8 to BCMA transfected cells; details: varying concentrations, 20 minutes at RT
# Procedure: ARH77-hBCMA 10B5 BCMA expressing transfectant cells or H929 cells were stained with either chimeric CA8 or humanised variants of CA8 designated J6M0, J6M1, J6M2, J9M0, J9M1, J9M2 at varying concentrations for 20 minutes at RT. Cells were then washed with FACS buffer (PBS+0.5% BSA+0.1% sodium azide) to remove unbound antibody. Cells were incubated with a secondary PE labelled anti-human IgG antibody for 15 minutes at RT and then washed with FACS buffer to remove unbound antibody. Cells were analysed by FACS and mean fluorescence intensity (MFI) values measured to determine binding.
# Cyno in house BCMA [2] = assay: ProteOn analysis of CA8 chimeric and humanised constructs, cyno in house BCMA; type: binding; details: 25° C.; for ka: in M-1s-1 (unit assumed); for kd: in s-1 (unit assumed)
# Sequence of Cyno in house BCMA (as listed by the source): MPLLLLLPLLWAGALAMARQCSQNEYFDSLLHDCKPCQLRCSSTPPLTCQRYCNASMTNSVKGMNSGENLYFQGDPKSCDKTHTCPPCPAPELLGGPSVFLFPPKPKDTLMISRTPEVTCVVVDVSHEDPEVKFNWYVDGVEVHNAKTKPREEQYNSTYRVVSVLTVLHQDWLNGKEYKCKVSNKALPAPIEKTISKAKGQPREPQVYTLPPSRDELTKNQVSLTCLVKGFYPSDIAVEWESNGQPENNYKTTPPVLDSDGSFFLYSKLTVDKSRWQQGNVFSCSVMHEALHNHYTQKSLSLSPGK
# Cyno in house BCMA [3] = assay: BIAcore analysis J7 to J9 series, cyno in house BCMA; type: binding; details: 37° C.
# [4] = tested on: ARH77 BCMA transfected target cells (10B5); assay: ADCC of chimeric and defucosylated chimeric CA8 with NK cells; type: cell-based; details: human NK cells, E:T ratio 5:1, 2 hours
# Procedure: Human natural killer (NK) cells were incubated with europium labelled ARH77 BCMA transfected target cells (10B5) in the presence of varying concentrations of antibody at an E:T ratio of 5:1 for 2 hours. Europium release from the target cells was measured and specific lysis calculated.
# [5] = tested on: human multiple myeloma cell lines NCI-H929, U266-B1, JJN3 and OPM2; assay: ADC activity of chimeric CA8 ADCs, 4 multiple myeloma cell lines (Cell titre Glo, 96 hours); type: cell-based; details: 1 ug/ml to 5 ng/ml, all 4 cell lines
# Procedure: FIG. 11: Viability assay dose response curves—Figure showing dose response curves in a cell viability assay for chimeric CA8 antibody, chimeric CA8-vcMMAE and chimeric CA8-mcMMAF antibody-drug conjugates in human multiple myeloma cell lines NCI-H929, U266-B1, JJN3 and OPM2. Antibody was added to the cells and the number of viable cells after 96 hours measured using CelltiterGlo. Data points represent the mean of triplicate CellTiterGlo measurements. Error bars represent standard error.
# Multiple Myeloma cell lines were treated with chimeric CA8 antibody-drug conjugates to determine the ADC concentrations required for growth inhibition and death.
# The antibody drug conjugates tested were added to wells containing multiple myeloma cells at concentrations ranging from 1 ug/ml to 5 ng/ml. The plates were incubated at 37° C. for 96 hours at which point viable cells were quantitated using Cell titre Glo.
molecule,measurement,setting,value
B1,binding to human BCMA expressed on HEK293 cells,human BCMA HEK293,binds well
same,binding to cyno BCMA expressed on HEK293 cells,cyno BCMA HEK293,binds well
same,binding to BCMA-Fc,BCMA-Fc,specific for binding to BCMA
same,binding to BAFF-R-Fc,BAFF-R-Fc,does not bind
same,dose dependent binding to ARH77-hBCMA 10B5 cells by FACS (MFI),[1],bound
same,ka,"Cyno in house BCMA [2]; Run 1, Cyno in house BCMA",3.82E+05
same,kd,"Cyno in house BCMA [2]; Run 1, Cyno in house BCMA",1.74E−04
same,ka,"Cyno in house BCMA [2]; Run 2, Cyno in house BCMA",5.89E+04
same,kd,"Cyno in house BCMA [2]; Run 2, Cyno in house BCMA",1.21E−04
same,ka,Cyno in house BCMA [3]; in M-1s-1 (unit assumed),1.15E+06
same,kd,Cyno in house BCMA [3]; in s-1 (unit assumed),3.49E−04
same,"ADCC activity (specific lysis, europium release)",[4],killed BCMA expressing target cells via ADCC
same,growth inhibitory activity,[5],no significant growth inhibitory activity
